Key:
Test in all cases: BLI
Details in all cases: both partners purified
[1] = molecular target: T1, SARS-CoV-2 P.1 (Gamma) NTD (SARS-CoV-2 P.1 (Gamma), strain)
T1 chain: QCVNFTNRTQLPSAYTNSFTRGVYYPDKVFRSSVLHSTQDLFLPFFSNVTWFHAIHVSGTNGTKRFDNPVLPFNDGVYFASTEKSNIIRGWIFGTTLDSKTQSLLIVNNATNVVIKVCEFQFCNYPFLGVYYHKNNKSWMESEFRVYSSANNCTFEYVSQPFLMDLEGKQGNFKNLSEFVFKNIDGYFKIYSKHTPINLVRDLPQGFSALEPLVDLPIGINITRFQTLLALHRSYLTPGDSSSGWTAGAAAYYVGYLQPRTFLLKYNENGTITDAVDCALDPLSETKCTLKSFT

[2] = molecular target: T2, SARS-CoV-2 B.1.617.2 (Delta) NTD (SARS-CoV-2 B.1.617.2 (Delta), strain)
T2 chain: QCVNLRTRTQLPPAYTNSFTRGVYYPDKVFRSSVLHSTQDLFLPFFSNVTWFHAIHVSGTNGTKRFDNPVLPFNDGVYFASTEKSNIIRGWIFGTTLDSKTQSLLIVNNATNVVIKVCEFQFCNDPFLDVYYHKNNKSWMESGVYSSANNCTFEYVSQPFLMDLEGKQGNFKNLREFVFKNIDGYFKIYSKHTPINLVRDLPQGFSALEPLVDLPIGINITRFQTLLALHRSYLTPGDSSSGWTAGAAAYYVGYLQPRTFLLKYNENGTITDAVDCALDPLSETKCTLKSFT

[3] = molecular target: T3, SARS-CoV-2 BA.2 NTD (SARS-CoV-2 Omicron BA.2, strain)
T3 chain: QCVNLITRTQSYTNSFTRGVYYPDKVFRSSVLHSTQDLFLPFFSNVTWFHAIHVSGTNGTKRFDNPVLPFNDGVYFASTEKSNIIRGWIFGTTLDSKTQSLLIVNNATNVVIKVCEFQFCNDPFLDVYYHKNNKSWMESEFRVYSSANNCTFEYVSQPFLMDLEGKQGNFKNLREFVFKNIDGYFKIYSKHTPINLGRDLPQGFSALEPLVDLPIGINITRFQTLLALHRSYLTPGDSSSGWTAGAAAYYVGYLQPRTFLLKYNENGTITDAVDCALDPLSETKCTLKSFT

[4] = molecular target: T4, SARS-CoV-2 BA.4/BA.5 NTD (SARS-CoV-2 Omicron BA.4/BA.5, strain)
T4 chain: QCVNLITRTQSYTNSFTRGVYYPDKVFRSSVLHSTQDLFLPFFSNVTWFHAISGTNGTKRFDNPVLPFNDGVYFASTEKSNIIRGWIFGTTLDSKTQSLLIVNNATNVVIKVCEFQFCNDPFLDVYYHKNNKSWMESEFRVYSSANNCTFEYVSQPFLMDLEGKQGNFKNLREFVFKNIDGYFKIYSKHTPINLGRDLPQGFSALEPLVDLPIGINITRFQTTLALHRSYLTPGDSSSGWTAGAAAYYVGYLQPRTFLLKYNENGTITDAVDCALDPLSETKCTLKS

[5] = molecular target: T5, SARS-CoV-2 BA.2.75.2 NTD (SARS-CoV-2 Omicron BA.2.75.2, strain)
T5 chain: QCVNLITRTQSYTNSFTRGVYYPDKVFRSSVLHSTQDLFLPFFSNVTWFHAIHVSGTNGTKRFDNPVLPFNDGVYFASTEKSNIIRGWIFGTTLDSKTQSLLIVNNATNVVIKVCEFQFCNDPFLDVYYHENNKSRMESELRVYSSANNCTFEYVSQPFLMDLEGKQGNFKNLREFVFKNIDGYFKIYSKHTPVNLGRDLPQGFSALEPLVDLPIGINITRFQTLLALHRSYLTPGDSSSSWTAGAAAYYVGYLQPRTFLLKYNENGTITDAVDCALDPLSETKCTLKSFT

[6] = molecular target: T6, SARS-CoV-2 BA.1 NTD (SARS-CoV-2 Omicron BA.1, strain)
T6 chain: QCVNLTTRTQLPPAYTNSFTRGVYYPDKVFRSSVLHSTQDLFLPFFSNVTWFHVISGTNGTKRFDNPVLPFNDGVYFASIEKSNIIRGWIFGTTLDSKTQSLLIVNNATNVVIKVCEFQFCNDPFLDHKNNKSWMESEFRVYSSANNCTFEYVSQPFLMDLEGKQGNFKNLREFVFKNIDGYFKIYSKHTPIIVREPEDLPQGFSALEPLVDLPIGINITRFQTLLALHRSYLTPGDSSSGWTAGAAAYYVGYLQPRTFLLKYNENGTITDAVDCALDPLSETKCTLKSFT

[7] = molecular target: T7, SARS-CoV-2 XBB.1.5 NTD (SARS-CoV-2 Omicron XBB.1.5, strain)
T7 chain: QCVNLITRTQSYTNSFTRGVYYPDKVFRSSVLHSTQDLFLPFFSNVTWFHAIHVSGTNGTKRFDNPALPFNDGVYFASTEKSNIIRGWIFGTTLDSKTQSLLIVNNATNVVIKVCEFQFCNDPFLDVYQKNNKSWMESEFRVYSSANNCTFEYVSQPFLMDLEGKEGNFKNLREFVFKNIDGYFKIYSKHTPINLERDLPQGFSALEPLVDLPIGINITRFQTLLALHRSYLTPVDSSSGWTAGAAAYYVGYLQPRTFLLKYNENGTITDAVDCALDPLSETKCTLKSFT

[8] = molecular target: T8, SARS-CoV-2 EG.5.1 NTD (SARS-CoV-2 Omicron EG.5.1, strain)
T8 chain: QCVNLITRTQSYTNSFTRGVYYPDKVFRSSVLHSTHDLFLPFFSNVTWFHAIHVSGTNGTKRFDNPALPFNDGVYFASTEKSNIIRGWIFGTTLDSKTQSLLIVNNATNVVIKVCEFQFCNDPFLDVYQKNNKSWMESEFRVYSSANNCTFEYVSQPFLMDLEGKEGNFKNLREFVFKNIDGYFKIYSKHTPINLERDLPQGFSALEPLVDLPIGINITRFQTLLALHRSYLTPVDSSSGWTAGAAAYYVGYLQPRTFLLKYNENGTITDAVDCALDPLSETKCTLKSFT

[9] = molecular target: T9, SARS-CoV-2 XBB.1.16 NTD (SARS-CoV-2 Omicron XBB.1.16, strain)
T9 chain: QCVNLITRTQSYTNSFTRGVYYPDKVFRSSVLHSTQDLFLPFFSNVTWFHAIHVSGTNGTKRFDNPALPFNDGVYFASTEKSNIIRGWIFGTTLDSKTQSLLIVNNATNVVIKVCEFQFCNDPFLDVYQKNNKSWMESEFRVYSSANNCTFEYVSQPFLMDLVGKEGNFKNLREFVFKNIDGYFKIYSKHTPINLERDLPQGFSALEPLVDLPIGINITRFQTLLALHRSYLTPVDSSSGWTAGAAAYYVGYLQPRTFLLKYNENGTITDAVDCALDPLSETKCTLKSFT

[10] = molecular target: SARS-CoV-2 XBB.1.5 RBD (SARS-CoV-2 Omicron XBB.1.5, strain)
[11] = molecular target: SARS-CoV-2 EG.5.1 RBD (SARS-CoV-2 Omicron EG.5.1, strain)
[12] = molecular target: SARS-CoV-2 HV.1 RBD (SARS-CoV-2 Omicron HV.1, strain)
[13] = molecular target: SARS-CoV-2 BA.4/BA.5 RBD (SARS-CoV-2 Omicron BA.4/BA.5, strain)

B1: C1533 IgG (antibody, V domains shown)
VH: QVQLVQSGAEVKKPGSSVKVSCKTSGVIFSRNAFSWVRQAPGQGLEWMGRIIPFLDVTNSAQEFQGRVTLNADKSTSTVYMELSSLRSEDTAIYYCARHNGDPYDFWSGYNTWAGGLDVWGQGTTVTVSS
VL: QSVLTQPPSASGTPGQRVTISCSGSGSNIGSNAVNWYQQLPGTAPKLLIYNQNQRPSGVPDRFSGSKSGTSASLAIGGLQSEDEADYYCATWDDNLSGLVFGGGTKLTVL
notes: copies: 2 + 2
Q: Which results are given for B1?
A: Kd [1]: 24.9 nM; koff [1]: 0.00107 s⁻¹; kon [1]: 43100 M⁻¹ s⁻¹

B2: C1520 IgG (antibody, V domains shown)
VH: EVQLVESGGGLVQPGGSLRLACVASGFTFSIYEMNWVRQAPGKGLEWVSYITTSGHARYNADSVKGRFTISRDNSKNSFYLQMNSLRAEDTAIYYCARPQYHYYDTSTYHSYGFDIWGQGTMVTVSS
VL: QLVLTQSPSASASLGASVNLTCTLSSGHNSYAIAWHQQQPEKGPRYLMSLNSDGSHTKGDGIPDRFSGSSSGAERFLTISSLQSEDEADYYCQTWDTGIRVFGGGTRLTVL
notes: copies: 2 + 2
Q: B2 was tested. Which Kd [2] did it give?
A: 47 nM

Q: What about the koff [2] of the same binder?
A: 0.00141 s⁻¹

Q: And the kon [2]?
A: 30000 M⁻¹ s⁻¹

Q: What about the Kd [3] of the same binder?
A: 14.3 nM

Q: And the koff [3]?
A: 0.000514 s⁻¹

Q: What about the kon [3] of the same binder?
A: 36000 M⁻¹ s⁻¹

Q: And the Kd [4]?
A: 11.4 nM

Q: And the koff [4]?
A: 0.000528 s⁻¹

Q: What about the kon [4] of the same binder?
A: 46300 M⁻¹ s⁻¹

Q: What about the Kd [5] of the same binder?
A: 185 nM

Q: What about the koff [5] of the same binder?
A: 0.00569 s⁻¹

Q: And the kon [5]?
A: 30700 M⁻¹ s⁻¹

Q: What about the Kd [6] of the same binder?
A: 118 nM

Q: What about the koff [6] of the same binder?
A: 0.00418 s⁻¹

Q: And the kon [6]?
A: 35500 M⁻¹ s⁻¹

Q: What about the Kd [1] of the same binder?
A: 230 nM

Q: And the koff [1]?
A: 0.00301 s⁻¹

Q: What about the kon [1] of the same binder?
A: 13100 M⁻¹ s⁻¹

B3: C1596 IgG (antibody, V domains shown)
VH: QVQLVQSGAEVKKPGSSVKVSCKASGGTFINYAVTWVRQAPGQGLEWMGGIIPILGIPNYAQKFQGRVTITADKSTSTAYMELSSLRSEDTAVYYCARVPQAGAAQGHYYYYYGMDVWGQGTTVTVSS
VL: not shown
notes: copies: 2 + 2
Q: How did the Kd [7] turn out when B3 was run?
A: 529 nM

Q: What about the Kd [2] of the same binder?
A: 124 nM

Q: And the Kd [3]?
A: 685 nM

Q: And the Kd [8]?
A: 410 nM

Q: What about the Kd [9] of the same binder?
A: 591 nM

Q: What about the Kd [4] of the same binder?
A: 674 nM

Q: And the Kd [5]?
A: 607 nM

Q: And the Kd [6]?
A: 88.2 nM

Q: What about the Kd [1] of the same binder?
A: 282 nM

B4: C952 IgG (antibody, V domains shown)
VH: EVQLVQSGAEVKKPGESLTISCKDSGNSFTIYWIGWVRQMPGKGLEWMGMIYPGDSGTRYSPSFEGQVTISADESINTAYLQWRSLKASDTAMYYCVRGIAVDWYFDLWGRGTLVTVSS
VL: QSVLTQPPSVSGAPGQRVTISCTGSSSNIGAGFDVHWYQQLPGTAPKLLIYGNNNRPSGVPDRFSGSKSATSASLAITGLQAEDEADYYCQSSDSSLSGLYVFGTGTNVIVL
notes: copies: 2 + 2
Q: Which Kd [10] does the source give for B4 here?
A: 99.3 nM

Q: And the koff [10]?
A: 0.0046 s⁻¹

Q: What about the kon [10] of the same binder?
A: 46300 M⁻¹ s⁻¹

Q: And the Kd [11]?
A: 180000 nM

Q: And the koff [11]?
A: 0.289 s⁻¹

Q: And the kon [11]?
A: 1600 M⁻¹ s⁻¹

Q: What about the Kd [12] of the same binder?
A: 939000 nM

Q: What about the koff [12] of the same binder?
A: 0.037 s⁻¹

Q: And the kon [12]?
A: 39.4 M⁻¹ s⁻¹

Q: And the Kd [13]?
A: 8.22 nM

Q: What about the koff [13] of the same binder?
A: 0.00358 s⁻¹

Q: What about the kon [13] of the same binder?
A: 435000 M⁻¹ s⁻¹

From paper doi:10.1101/2024.05.05.592584 (bioRxiv, 2024)
